B1: BBSome complex member BBS5 (Homo sapiens), Q8N3I7 (parent)
chain: MSVLDALWEDRDVRFDLSAQQMKTRPGEVLIDCLDSIEDTKGNNGDRGRLLVTNLRILWHSLALSRVNVSVGYNCILNITTRTANSKLRGQTEALYILTKCNSTRFEFIFTNLVPGSPRLFTSVMAVHRAYETSKMYRDFKLRSALIQNKQLRLLPQEHVYDKINGVWNLSSDQGNLGTFFITNVRIVWHANMNDSFNVSIPYLQIRSIKIRDSKFGLALVIESSQQSGGYVLGFKIDPVEKLQESVKEINSLHKVYSASPIFGVDYEMEEKPQPLEALTVEQIQDDVEIDSDGHTDAFVAYFADGNKQQDREPVFSEELGLAIEKLKDGFTLQGLWEVMS
partner: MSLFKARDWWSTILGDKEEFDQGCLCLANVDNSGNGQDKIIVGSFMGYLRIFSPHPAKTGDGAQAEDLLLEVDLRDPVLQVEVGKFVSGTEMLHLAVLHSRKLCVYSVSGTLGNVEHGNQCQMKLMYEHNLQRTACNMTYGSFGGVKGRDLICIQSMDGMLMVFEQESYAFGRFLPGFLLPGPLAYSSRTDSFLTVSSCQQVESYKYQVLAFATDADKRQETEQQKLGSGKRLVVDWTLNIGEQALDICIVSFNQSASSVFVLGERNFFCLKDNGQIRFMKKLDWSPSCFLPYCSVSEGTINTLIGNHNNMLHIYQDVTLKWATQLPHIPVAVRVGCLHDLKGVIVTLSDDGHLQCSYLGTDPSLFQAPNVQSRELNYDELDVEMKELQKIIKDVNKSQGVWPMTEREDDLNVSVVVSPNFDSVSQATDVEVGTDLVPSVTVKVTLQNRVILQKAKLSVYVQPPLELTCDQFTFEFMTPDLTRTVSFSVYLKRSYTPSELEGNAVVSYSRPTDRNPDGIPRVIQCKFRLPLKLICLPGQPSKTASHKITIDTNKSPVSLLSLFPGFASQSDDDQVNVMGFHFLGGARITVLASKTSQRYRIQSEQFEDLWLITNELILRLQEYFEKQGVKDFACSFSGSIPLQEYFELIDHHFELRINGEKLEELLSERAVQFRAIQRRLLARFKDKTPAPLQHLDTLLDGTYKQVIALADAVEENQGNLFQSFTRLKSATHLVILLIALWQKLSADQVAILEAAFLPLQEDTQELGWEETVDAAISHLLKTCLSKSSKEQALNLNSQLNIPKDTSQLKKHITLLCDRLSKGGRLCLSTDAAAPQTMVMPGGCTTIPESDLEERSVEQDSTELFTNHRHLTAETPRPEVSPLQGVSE

Variants of: B1
Details: with pthb1_human BBS9, Q3SYG4

| Variant | effect of a mutation on the interaction |
| --- | --- |
| MSVLDALWEDRDVRFDLSAQQMKTRPGEVLIDCLDSIEDTKGNNGDRGRLLVTNLRILWHSLALSRVNVSVGYNCILNITTRTANSKLRGQTEALYILTKCNSTRFEFIFTNLVPGSPRLFTSVMAVHRAYETSKMYRDFKLRSALIQNKQLRLLPQEHVYDKINGVWNLSSDQGNLGTFKITNVRIVWHANMNDSFNVSIPYLQIRSIKIRDSKFGLALVIESSQQSGGYVLGFKIDPVEKLQESVKEINSLHKVYSASPIFGVDYEMEEKPQPLEALTVEQIQDDVEIDSDGHTDAFVAYFADGNKQQDREPVFSEELGLAIEKLKDGFTLQGLWEVMS [F181K] | with no effect |
| MSVLDALWEDRDVRFDLSAQQMKTRPGEVLIDCLDSIEDTKGNNGDRGRLLVTNLRILWHSLALSRVNVSVGYNCILNITTRTANSKLRGQTEALYILTKCNSTRFEFIFTNLVPGSPRLFTSVMAVHRAYETSKMYRDFKLRSALIQNKQLRLLPQEHVYDKINGVWNLSSDQGNLGTFFATNVRIVWHANMNDSFNVSIPYLQIRSIKIRDSKFGLALVIESSQQSGGYVLGFKIDPVEKLQESVKEINSLHKVYSASPIFGVDYEMEEKPQPLEALTVEQIQDDVEIDSDGHTDAFVAYFADGNKQQDREPVFSEELGLAIEKLKDGFTLQGLWEVMS [I182A] | with no effect |
| MSVLDALWEDRDVRFDLSAQQMKTRPGEVLIDCLDSIEDTKGNNGDRGRLLVTNLRILWHSLALSRVNVSVGYNCILNITTRTANSKLRGQTEALYILTKCNSTRFEFIFTNLVPGSPRLFTSVMAVHRAYETSKMYRDFKLRSALIQNKQLRLLPQEHVYDKINGVWNLSSDQGNLGTFFETNVRIVWHANMNDSFNVSIPYLQIRSIKIRDSKFGLALVIESSQQSGGYVLGFKIDPVEKLQESVKEINSLHKVYSASPIFGVDYEMEEKPQPLEALTVEQIQDDVEIDSDGHTDAFVAYFADGNKQQDREPVFSEELGLAIEKLKDGFTLQGLWEVMS [I182E] | with no effect |
| MSVLDALWEDRDVRFDLSAQQMKTRPGEVLIDCLDSIEDTKGNNGDRGRLLVTNLRILWHSLALSRVNVSVGYNCILNITTRTANSKLRGQTEALYILTKCNSTRFEFIFTNLVPGSPRLFTSVMAVHRAYETSKMYRDFKLRSALIQNKQLRLLPQEHVYDKINGVWNLSSDQGNLGTFFKTNVRIVWHANMNDSFNVSIPYLQIRSIKIRDSKFGLALVIESSQQSGGYVLGFKIDPVEKLQESVKEINSLHKVYSASPIFGVDYEMEEKPQPLEALTVEQIQDDVEIDSDGHTDAFVAYFADGNKQQDREPVFSEELGLAIEKLKDGFTLQGLWEVMS [I182K] | disrupting interaction strength |
| MSVLDALWEDRDVRFDLSAQQMKTRPGEVLIDCLDSIEDTKGNNGDRGRLLVTNLRILWHSLALSRVNVSVGYNCILNITTRTANSKLRGQTEALYILTKCNSTRFEFIFTNLVPGSPRLFTSVMAVHRAYETSKMYRDFKLRSALIQNKQLRLLPQEHVYDKINGVWNLSSDQGNLGTFFIANVRIVWHANMNDSFNVSIPYLQIRSIKIRDSKFGLALVIESSQQSGGYVLGFKIDPVEKLQESVKEINSLHKVYSASPIFGVDYEMEEKPQPLEALTVEQIQDDVEIDSDGHTDAFVAYFADGNKQQDREPVFSEELGLAIEKLKDGFTLQGLWEVMS [T183A] | with no effect |
| MSVLDALWEDRDVRFDLSAQQMKTRPGEVLIDCLDSIEDTKGNNGDRGRLLVTNLRILWHSLALSRVNVSVGYNCILNITTRTANSKLRGQTEALYILTKCNSTRFEFIFTNLVPGSPRLFTSVMAVHRAYETSKMYRDFKLRSALIQNKQLRLLPQEHVYDKINGVWNLSSDQGNLGTFFIENVRIVWHANMNDSFNVSIPYLQIRSIKIRDSKFGLALVIESSQQSGGYVLGFKIDPVEKLQESVKEINSLHKVYSASPIFGVDYEMEEKPQPLEALTVEQIQDDVEIDSDGHTDAFVAYFADGNKQQDREPVFSEELGLAIEKLKDGFTLQGLWEVMS [T183E] | with no effect |
| MSVLDALWEDRDVRFDLSAQQMKTRPGEVLIDCLDSIEDTKGNNGDRGRLLVTNLRILWHSLALSRVNVSVGYNCILNITTRTANSKLRGQTEALYILTKCNSTRFEFIFTNLVPGSPRLFTSVMAVHRAYETSKMYRDFKLRSALIQNKQLRLLPQEHVYDKINGVWNLSSDQGNLGTFFIKNVRIVWHANMNDSFNVSIPYLQIRSIKIRDSKFGLALVIESSQQSGGYVLGFKIDPVEKLQESVKEINSLHKVYSASPIFGVDYEMEEKPQPLEALTVEQIQDDVEIDSDGHTDAFVAYFADGNKQQDREPVFSEELGLAIEKLKDGFTLQGLWEVMS [T183K] | with no effect |
| MSVLDALWEDRDVRFDLSAQQMKTRPGEVLIDCLDSIEDTKGNNGDRGRLLVTNLRILWHSLALSRVNVSVGYNCILNITTRTANSKLRGQTEALYILTKCNSTRFEFIFTNLVPGSPRLFTSVMAVHRAYETSKMYRDFKLRSALIQNKQLRLLPQEHVYDKINGVWNLSSDQGNLGTFFITAVRIVWHANMNDSFNVSIPYLQIRSIKIRDSKFGLALVIESSQQSGGYVLGFKIDPVEKLQESVKEINSLHKVYSASPIFGVDYEMEEKPQPLEALTVEQIQDDVEIDSDGHTDAFVAYFADGNKQQDREPVFSEELGLAIEKLKDGFTLQGLWEVMS [N184A] | with no effect |
